Data on 3 substances can be found in US20070116718A1.

Experiment [1] concerns the target bacteriophage displaying the DO11.10 scTCR/gene VIII fusion protein (vector pKC51) (murine; fd tet bacteriophage). The experiment is described as follows: phage panning on biotin antibody on neutrAvidin wells, phage diluted 1:50,000 in irrelevant phage.
In experiment [2] the target is single-chain MHC class II I-A^d complex with OVA 323-339 peptide, immobilized (chicken; murine) (UniProt P01012). As to the kind of experiment: cell-based or functional assay.

Chain of bacteriophage displaying the DO11.10 scTCR/gene VIII fusion protein (vector pKC51) (murine; fd tet bacteriophage) (main, as listed by the source): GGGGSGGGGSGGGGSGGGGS

Regarding “anti-V-β8.2 monoclonal antibody MR5-2 (PharMingen)”, the fold enrichment after a single round of panning in experiment [1] was determined as 5000 fold. In turn, “bacteriophage displaying the DO11.10 scTCR/gene VIII fusion protein (vector pKC51)” yielded a level of IL-2 inhibition, DO11.10 group against gD12 hybridoma group in experiment [2] of 8 to 10 fold.

“hamster anti-mouse αβ TCR antibody H57-597 (ATCC HB-218)” showed a fold enrichment after a single round of panning in experiment [1] of 5000 fold.
